Columns and labels:
[1] = biological target: T1, His-StrepTagII-HRV3C-human VWF-CK-HA-tag (human); experiment: solution-phase equilibrium binding, free antibody by ELISA; apparent Kd; pH 7.4; mean ± SD, n=2
T1 construct: it begins with the VWF signal peptide, whose limits were marked only by underlining that is lost in the text, so it was not cut off; The CK domain forms disulfide-linked homodimers (CK dimer); also called recombinant human CK domain; Human CK
T1 chain: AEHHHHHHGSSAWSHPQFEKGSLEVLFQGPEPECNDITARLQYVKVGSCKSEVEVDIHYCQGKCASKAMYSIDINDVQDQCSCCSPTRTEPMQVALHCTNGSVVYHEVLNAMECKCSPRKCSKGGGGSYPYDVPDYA
Description: (§1) Following incubation for 30 min at room temperature to establish equilibrium, unbound antibody was quantified by ELISA using the immobilized human CK domain for capture and HRP-conjugated goat anti-human IgG Fc antibody for detection.
(§2) Following a single wash of the plate with 200 μL of wash buffer (TBS containing 0.05% (v/v) Tween-20 and 5 mM CaCl₂), the plate was blocked by incubation with 200 μL blocking buffer (TBS containing 5 mM CaCl₂ and 1% (w/w) BSA) for 1 hour at room temperature. […] Incubation lasted 3 min and was followed by 5-min incubation with 100 μL HRP-conjugated goat anti-human IgG Fc antibody for detection (1 mg/mL stock diluted 1:20,000 in blocking buffer). Before and after addition of a detection antibody, the plate was washed 5 times with 200 μL wash buffer. A chromogenic horseradish peroxidase (HRP) substrate (100 μL) was then added and following color development for 3 min, 100 μL ELISA stop solution were added to quench the reaction. Absorbance was measured at 450 nm with subtraction of the absorbance at 620 nm.
(§3) The standard curve prepared with free antibody was fitted to a Sigmoidal four-parameter logistic (4PL) model.

[2] = biological target: T2, His-StrepTagII-HRV3C-cyno VWF-CK-HA-tag (cynomolgus monkey); experiment: as above
T2 construct: it begins with the VWF signal peptide, whose limits were marked only by underlining that is lost in the text, so it was not cut off; The CK domain forms disulfide-linked homodimers; also called recombinant cyno CK domain; Cyno CK
T2 chain: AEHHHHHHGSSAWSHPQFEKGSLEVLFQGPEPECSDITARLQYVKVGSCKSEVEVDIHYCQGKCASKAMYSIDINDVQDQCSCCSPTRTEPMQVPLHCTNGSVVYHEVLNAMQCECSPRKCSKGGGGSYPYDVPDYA
Description: as §1, §2, §3

[3] = biological target: T3, biotinylated human VWF cysteine knot (CK) domain construct (human, biotin on the in vitro biotinylation tag (residue not stated); one N-glycan); experiment: SPR, scFv captured on anti-SV5, pH 7.4
T3 construct: Disulfide-linked homodimer; also called biotinylated human VWF CK domain; human VWF CK domain construct
T3 chain: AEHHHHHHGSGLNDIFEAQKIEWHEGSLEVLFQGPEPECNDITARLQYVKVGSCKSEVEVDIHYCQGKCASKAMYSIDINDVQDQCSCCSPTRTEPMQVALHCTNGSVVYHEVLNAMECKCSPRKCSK

[4] = biological target: T4, His-StrepTagII-HRV3C-cyno VWF-CK-HA-tag (cynomolgus monkey); experiment: solution-phase equilibrium binding, unbound antibody by ELISA
T4 construct: also called recombinant cyno CK domain; cyno CK
T4 chain: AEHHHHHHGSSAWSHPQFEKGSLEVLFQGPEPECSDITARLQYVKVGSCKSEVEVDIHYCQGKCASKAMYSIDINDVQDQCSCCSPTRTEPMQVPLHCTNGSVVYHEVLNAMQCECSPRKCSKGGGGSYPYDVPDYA

binding result [3]	Binder	further results
binds	Lib4_P2_D1_scFv (scFv, not shown: small tags and cut ends) scFv: QVQLVQSGAEVKKPGASVKVSCKVSGDTLSNYAIHWVRQAPGKGLEWMGGINPNAGTTIYAQKFQGRVTMTEDTSTDTAYMELSSLKSEDTAVYYCARDSSSWCPVGYYYYYMDVWGKGTTVTVSSSGGSTITSYNVYYTKLSSSGTDIQMTQSPSSVSASVGDRVTITCRASQSIGDFLAWYQQKPGKAPKLLIYDASHLQTGVPSRFSGSGSGTDFTLTISSLQPEDFANYYCQQTSTIPPTFGGGTKVEIK	–
binds	Lib1_P1_A5_scFv (scFv, not shown: small tags and cut ends) scFv: QVQLVQSGAEVKKPGASVKVSCKVSGDTLSNYAIHWVRQAPGKGLEWMGGINPNAGTTIYAQKFQGRVTMTEDTSTDTAYMELSSLKSEDTAVYYCARDSSSWCPVGYYYYYMDVWGKGTTVTVSSSGGSTITSYNVYYTKLSSSGTDIQMTQSPSSVSASVGDRVTITCRASQSIGDFLAWYQQKPGKAPKLLIYDASHLQTGVPSRFSGSGSGTDFTLTISSLQPEDFANYYCQQTSTIPPTFGGGTKVEIK	–
binds	9312_Lib8_scFv (scFv, not shown: small tags and cut ends) scFv: EVQLVESGGGLVQPGRSLRLSCAASGFSLSTYDMHWVRQAPGKGLEWVSAISSSGDTRDYADSVEGRFTISRDNAKNSLYLQMNSLRAEDTAVYYCARAFWGGDAFDIWGQGTMVTVSSSGGSTITSYNVYYTKLSSSGTDIQMTQSPSSLSASVGDRVTITCRASQTIGYWLAWYQQKPGKAPKLLIYGASTLEGGVPSRFSGSGSGTDFTLTISSLQPEDVATYYCQHSYSAPPTFGGGTKVEIK	–
binds	4761_Lib8_scFv (scFv, not shown: small tags and cut ends) scFv: EVQLVESGGGLVQPGRSLRLSCAASGFTFSSDTMHWVRQAPGKGLEWVSAISSSGDHTDYADSVEGRFTISRDNAKNSLYLQMNSLRAEDTAVYYCAREGLRGYYFDYWGQGTLVTVSSSGGSTITSYNVYYTKLSSSGTDIQMTQSPSSLSASVGDRVTITCRASQGISGHLAWYQQKPGKAPKLLIYAASALQSGVPSRFSGSGSGTDFTLTISSLQPEDVATYYCQQSHSLPWTFGGGTKVEIK	–
binds	Lib1_P1_A6_scFv (scFv, not shown: small tags and cut ends) scFv: QVQLVQSGAEVKKPGASVKVSCKVSGSTFSNYAIHWVRQAPGKGLEWMGGIVPLSGTAIYAQKFQGRVTMTEDTSTDTAYMELSSLKSEDTAVYYCARDQGESSGWYAIYYGMDVWGQGTTVTVSSSGGSTITSYNVYYTKLSSSGTDIQMTQSPSSVSASVGDRVTITCRASQGIGTWLAWYQQKPGKAPKLLIYGSSSRASGVPSRFSGSGSGTDFTLTISSLQPEDFANYYCQQSYGKPTFGGGTKVEIK	–
binds	5802_Lib4_scFv (scFv, not shown: small tags and cut ends) scFv: QVQLQESGPGLVKPSQTLSLTCTVSGYSISSGDYHWSWIRQPPGKGLEWIGYINPSGSADYNPSLKSRVTMSVDTSKNQFSLKVNSVTAADTAVYYCARDGVAATYYYYYGMDVWGQGTTVTVSSSGGSTITSYNVYYTKLSSSGTEIVMTQSPATLSLSPGERATLSCRASHSIGSNLAWYQQKPGQAPRLLIYDATTRATGIPARFSGSGSGTDFTLTISSLEPEDFAVYYCQQAYSFPLTFGGGTKVEIK	–

Further lines, the binder ahead of its results:

Binder	binding result [3]	further results
399_Lib1 OA (antibody, human IgG4 S228P, kappa, F234A L235A) heavy: QVQLVQSGAEVKKPGASVKVSCKVSGITFTSDYIHWVRQAPGKGLEWMGGMNPYSNKAIYAQKFQGRVTMTEDTSTDTAYMELSSLKSEDTAVYYCATGGLRIAARTSYFDYWGQGTLVTVSSASTKGPSVFPLAPCSRSTSESTAALGCLVKDYFPEPVTVSWNSGALTSGVHTFPAVLQSSGLYSLSSVVTVPSSSLGTKTYTCNVDHKPSNTKVDKRVESKYGPPCPPCPAPEAAGGPSVFLFPPKPKDTLMISRTPEVTCVVVDVSQEDPEVQFNWYVDGVEVHNAKTKPREEQFNSTYRVVSVLTVLHQDWLNGKEYKCKVSNKGLPSSIEKTISKAKGQPREPQVYTLPPSQEEMTKNQVSLSCAVKGFYPSDIAVEWESNGQPENNYKTTPPVLDSDGSFFLVSRLTVDKSRWQEGNVFSCSVMHEALHNHYTQKSLSLSLG ESKYGPPCPPCPAPEAAGGPSVFLFPPKPKDTLMISRTPEVTCVVVDVSQEDPEVQFNWYVDGVEVHNAKTKPREEQFNSTYRVVSVLTVLHQDWLNGKEYKCKVSNKGLPSSIEKTISKAKGQPREPQVYTLPPSQEEMTKNQVSLWCLVKGFYPSDIAVEWESNGQPENNYKTTPPVLDSDGSFFLYSRLTVDKSRWQEGNVFSCSVMHEALHNHYTQKSLSLSLG light: DIQMTQSPSSVSASVGDRVTITCRASMDIAGSLAWYQQKPGKAPKLLIYDTSFRATGVPSRFSGSGSGTDFTLTISSLQPEDFANYYCQQYDNPPRLTFGGGTKVEIKRTVAAPSVFIFPPSDEQLKSGTASVVCLLNNFYPREAKVQWKVDNALQSGNSQESVTEQDSKDSTYSLSSTLTLSKADYEKHKVYACEVTHQGLSSPVTKSFNRGEC	–	Kd [1]: 13 nM; Kd [2]: 16.8 nM
5662_Lib8_scFv (scFv, not shown: small tags and cut ends) scFv: EVQLVESGGGLVQPGRSLRLSCAASGFNFHNYDMHWVRQAPGKGLEWVSAIDISGQSTDYADSVEGRFTISRDNAKNSLYLQMNSLRAEDTAVYYCAREGWYGGVFDYWGQGTLVTVSSSGGSTITSYNVYYTKLSSSGTDIQMTQSPSSLSASVGDRVTITCRASQDIANWLAWYQQKPGKAPKLLIYGASESGVGVPSRFSGSGSGTDFTLTISSLQPEDVATYYCQQSLTMKTFGGGTKVEIK	binds	–
7046_Lib8_scFv (scFv, not shown: small tags and cut ends) scFv: EVQLVESGGGLVQPGRSLRLSCAASGFNFHNYDMHWVRQAPGKGLEWVSAISGSGYTADYADSVEGRFTISRDNAKNSLYLQMNSLRAEDTAVYYCAKSHSSGWSSAFDIWGQGTMVTVSSSGGSTITSYNVYYTKLSSSGTDIQMTQSPSSLSASVGDRVTITCRASQTIGYWLAWYQQKPGKAPKLLIYDATNLATGVPSRFSGSGSGTDFTLTISSLQPEDVATYYCQHYNPYSQVTFGGGTKVEIK	binds	–
Lib1_P1_F10_scFv (scFv, not shown: small tags and cut ends) scFv: QVQLVQSGAEVKKPGASVKVSCKVSGYTFSSSGIHWVRQAPGKGLEWMGGIFPNFGTAIYAQKFQGRVTMTEDTSTDTAYMELSSLKSEDTAVYYCARESDFWSGSFTNWGQGTLVTVSSSGGSTITSYNVYYTKLSSSGTDIQMTQSPSSVSASVGDRVTITCRASRSIGNWLAWYQQKPGKAPKLLIYDAFNRASGVPSRFSGSGSGTDFTLTISSLQPEDFANYYCQQSYSTLPRYSFGGGTKVEIK	binds	–
399_Lib1 OA (antibody, human IgG4 S228P, kappa, F234A L235A, monovalent one-arm human IgG4) heavy: QVQLVQSGAEVKKPGASVKVSCKVSGITFTSDYIHWVRQAPGKGLEWMGGMNPYSNKAIYAQKFQGRVTMTEDTSTDTAYMELSSLKSEDTAVYYCATGGLRIAARTSYFDYWGQGTLVTVSSASTKGPSVFPLAPCSRSTSESTAALGCLVKDYFPEPVTVSWNSGALTSGVHTFPAVLQSSGLYSLSSVVTVPSSSLGTKTYTCNVDHKPSNTKVDKRVESKYGPPCPPCPAPEAAGGPSVFLFPPKPKDTLMISRTPEVTCVVVDVSQEDPEVQFNWYVDGVEVHNAKTKPREEQFNSTYRVVSVLTVLHQDWLNGKEYKCKVSNKGLPSSIEKTISKAKGQPREPQVYTLPPSQEEMTKNQVSLSCAVKGFYPSDIAVEWESNGQPENNYKTTPPVLDSDGSFFLVSRLTVDKSRWQEGNVFSCSVMHEALHNHYTQKSLSLSLG ESKYGPPCPPCPAPEAAGGPSVFLFPPKPKDTLMISRTPEVTCVVVDVSQEDPEVQFNWYVDGVEVHNAKTKPREEQFNSTYRVVSVLTVLHQDWLNGKEYKCKVSNKGLPSSIEKTISKAKGQPREPQVYTLPPSQEEMTKNQVSLWCLVKGFYPSDIAVEWESNGQPENNYKTTPPVLDSDGSFFLYSRLTVDKSRWQEGNVFSCSVMHEALHNHYTQKSLSLSLG light: DIQMTQSPSSVSASVGDRVTITCRASMDIAGSLAWYQQKPGKAPKLLIYDTSFRATGVPSRFSGSGSGTDFTLTISSLQPEDFANYYCQQYDNPPRLTFGGGTKVEIKRTVAAPSVFIFPPSDEQLKSGTASVVCLLNNFYPREAKVQWKVDNALQSGNSQESVTEQDSKDSTYSLSSTLTLSKADYEKHKVYACEVTHQGLSSPVTKSFNRGEC	–	fold change in Kd, cyno CK against human CK [4]: < 2 fold
